We go through one molecule from US20240352110A1 (ROCHE DIAGNOSTICS OPERATIONS, published 2024).

The target of the assay is T1, Aβ42 (human, UniProt P05067 672-713).
T1 construct: range 672-713; In the Elecsys experiments it is the native Aβ42 of the plasma sample; also called Ab42; Abeta42
Description: SPR (Biacore 8K+), antibody captured, Aβ42 injected, 37° C., Langmuir 1:1 fit. Here is the method: Measurements were performed using the BIAcore™ 8K+ instruments. Aβ-42 concentration series ranging from 1.2 nM to 900 nM were injected at […]. The association phase was monitored for 3 min, the dissociation phase between 5 min to 10 min at 37° C.
The measurements were performed using PBS-DT+, pH7.4 (10 mM phosphate buffer, 2.7 mM KCl, 137 mM NaCl. 5% DMSO, 0.05% Tween 20) as running buffer.
The kinetic rate constants and the dissociation equilibrium constants KD were calculated using a Langmuir 1:1 fit model according Scrubber Version 2.0.c.

Some results are limits rather than exact numbers.

T1 sequence (P05067 672-713 limits assumed, form in doubt): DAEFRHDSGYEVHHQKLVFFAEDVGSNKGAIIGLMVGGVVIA

B1: Mouse anti Aβ-42 antibody 3.2.52 (IgG2b), expressed in hybridoma (antibody)
heavy: EVQLQQSGPELVKLGASVRVSCRTSGFTITEYTMHWVKQSHGKSLEWIGGINPITGGSRNNLKFKDKATLTGDKSSSTVYMDLRSLTSEGSTVNYCVRGRTMGPLDYWGQGTTLTVSSAKTTPPSVYPLAPGCGDTTGSSVTLGCLVKGYFPESVTVTWNSGSLSSSVHTFPALLQSGLYTMSSSVTVPSSTWPSQTVTCSVAHPASSTTVDKKLEPSGPISTINPCPPCKECHKCPAPNLEGGPSVFIFPPNIKDVLMISLTPKVTCVVVDVSEDDPDVRISWFVNNVEVHTAQTQTHREDYNSTIRVVSALPIQHQDWMSGKEFKCKVNNKDLPSPIERTISKIKGLVRAPQVYILPPPAEQLSRKDVSLTCLVVGFNPGDISVEWTSNGHTEENYKDTAPVLDSDGSYFIYSKLDIKTSKWEKTDSFSCNVRHEGLKNYYLKKTISRSPGK
light: not shown
notes: Full-length mouse IgG2b; Biotinylated when used as capture antibody in Elecsys assays; also called M-3.2.52; clone 3.2.52
As a reminder, the Kd is the equilibrium constant for the complex coming apart. A low value points to higher affinity. What is called koff is the rate constant with which the complex falls apart. Lower therefore signals a long-lived complex. The kon is the rate constant with which the complex forms. High values mean faster complex formation, low ones slower complex formation. Consider B1, for which the Kd is 6.7 nM, the “MR (molar ratio)” value stood at 0.7, the koff was 0.0253 s⁻¹ and the kon is 3.8e+06 M⁻¹ s⁻¹. The “t/2 diss (complex half-life)” value is less than 1 min.
